This is an account of results in publication PMC4010427, “Structural and Functional Similarity of Amphibian Constitutive Androstane Receptor with Mammalian Pregnane X Receptor” (PLoS ONE, 2014).

The target in experiment [1] is GST-tagged SRC-1 RID protein (recombinant human SRC-1, amino acids 583–783) (UniProt Q15788). Kind of experiment: CARLA. The note with it: n = 3, read off a plot; for response: absence of ligand (DMSO only), parent: est. 0.10; for other: fold induction (fold over DMSO only (=1)): 100 µM pregnanedione (log M = -4.0), parent: est. 74.
GST-tagged SRC-1 RID protein (recombinant human SRC-1, amino acids 583–783), sequence (Q15788 583-783): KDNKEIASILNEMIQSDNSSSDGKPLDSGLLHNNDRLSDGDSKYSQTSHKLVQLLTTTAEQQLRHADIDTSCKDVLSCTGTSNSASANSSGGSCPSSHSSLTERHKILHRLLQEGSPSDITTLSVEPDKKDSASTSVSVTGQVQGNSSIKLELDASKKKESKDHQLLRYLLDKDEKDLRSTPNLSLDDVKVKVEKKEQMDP
Experiment [2] addresses GAL4-DBD/RXRα-LBD fusion protein (human retinoid X receptor α, amino acids 226–462) (UniProt P19793). Put plainly: mammalian two-hybrid assay. The note with it: COS7 cells; GAL4-dependent pGL3G5 reporter; no ligand; n = 6; parent: est. 40; read off a plot.
The target in experiment [3] is GAL4-DBD/PGC-1α-RID fusion protein (human PGC-1α, receptor interaction domain, amino acids 88-213) (UniProt Q9UBK2). Put plainly: mammalian two-hybrid assay. To be noted: COS7 cells; pM-PGC1a (black bars); no ligand; n = 9; empty pVP16-AD with pM-PGC1a est. 3.3 (red line); parent: est. 3.6; read off a plot.
GAL4-DBD/PGC-1α-RID fusion protein (human PGC-1α, receptor interaction domain, amino acids 88-213), sequence (Q9UBK2 88-213): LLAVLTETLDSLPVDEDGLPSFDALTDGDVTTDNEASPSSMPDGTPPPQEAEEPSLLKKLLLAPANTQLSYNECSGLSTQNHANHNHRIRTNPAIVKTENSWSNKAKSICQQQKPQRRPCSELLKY
The target of experiment [4] is GAL4-DBD/SRC1-RID fusion protein (human coactivator SRC-1, receptor interaction domain, amino acids 583–783) (UniProt Q15788). Put plainly: mammalian two-hybrid assay. To be noted: COS7 cells; pM-SRC-1 (black bars); no ligand; n = 9; empty pVP16-AD with pM-SRC-1 est. 0.57 (red line); parent: est. 0.49; read off a plot.
GAL4-DBD/SRC1-RID fusion protein (human coactivator SRC-1, receptor interaction domain, amino acids 583–783), sequence (Q15788 583-783): as the sequence (Q15788 583-783) above
The target of experiment [5] is T1, xlCARα (Xenopus laevis, UniProt A0A1L8FCY0).
T1 construct: gene nr1i3.L; full-length; 35S-Met labelled by in vitro transcription/translation (CARLA, with human GST-SRC-1 RID 583-783 as read-out) or expressed in HepG2 cells; LBD residues 145-423
T1 sequence (A0A1L8FCY0 19-441): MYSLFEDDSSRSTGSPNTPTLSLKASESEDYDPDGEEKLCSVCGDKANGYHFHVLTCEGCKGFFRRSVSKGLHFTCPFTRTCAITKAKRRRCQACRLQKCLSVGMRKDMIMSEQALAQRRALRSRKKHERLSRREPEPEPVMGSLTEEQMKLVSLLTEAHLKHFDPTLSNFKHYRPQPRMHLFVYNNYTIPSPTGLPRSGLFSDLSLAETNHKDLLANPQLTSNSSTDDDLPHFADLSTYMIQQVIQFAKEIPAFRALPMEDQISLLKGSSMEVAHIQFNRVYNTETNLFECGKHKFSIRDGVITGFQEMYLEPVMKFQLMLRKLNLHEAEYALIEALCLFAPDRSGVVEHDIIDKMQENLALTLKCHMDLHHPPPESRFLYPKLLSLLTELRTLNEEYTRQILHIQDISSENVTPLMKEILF
Put plainly: CARLA: ligand-dependent pull-down of […]-labelled receptor by GST-SRC-1 RID. The note with it: pH 8.0, 4 °C overnight; agonist; indirect coactivator-dependent binding assay.

GAL4-DBD/RXRα-LBD fusion protein (human retinoid X receptor α, amino acids 226–462), sequence (P19793 226-462): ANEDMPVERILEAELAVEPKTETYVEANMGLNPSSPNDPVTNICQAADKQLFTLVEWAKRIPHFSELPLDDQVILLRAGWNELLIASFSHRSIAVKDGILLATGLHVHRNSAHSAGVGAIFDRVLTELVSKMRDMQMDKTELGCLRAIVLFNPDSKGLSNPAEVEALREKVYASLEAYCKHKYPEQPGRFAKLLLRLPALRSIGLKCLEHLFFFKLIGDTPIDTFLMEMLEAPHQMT

Regarding “full-length Xenopus laevis CARα, wild type, 35S-labelled Tyr311Phe”, the response in experiment [1] was 0.06 % of input.

As to “VP16-AD/xlCARα-LBD fusion protein, wild type (Xenopus laevis constitutive androstane receptor α, amino acids 145–423) Val315Ile”, in experiment [2], the response (fold over empty vector pVP16-AD (=1)) is 41. Also, the response turned out to be 2.8 rel pM/pVP16 in experiment [3] and 0.38 rel pM/pVP16 in experiment [4].

Take “full-length Xenopus laevis CARα, wild type, 35S-labelled Phe279Leu”: in experiment [1], the other: fold induction (fold over DMSO only (=1)) amounted to 2 and the response is 0.05 % of input.

Turning to “full-length Xenopus laevis CARα, wild type, 35S-labelled Met272Val”, in experiment [1], the other: fold induction (fold over DMSO only (=1)) came out at 16 and the response is 0.17 % of input.

For “VP16-AD/xlCARα-LBD fusion protein, wild type (Xenopus laevis constitutive androstane receptor α, amino acids 145–423) Met272Val”, the response (fold over empty vector pVP16-AD (=1)) in experiment [2] came to 55. Moreover, the response came out at 5.5 rel pM/pVP16 in experiment [3] and 0.71 rel pM/pVP16 in experiment [4].

For “VP16-AD/xlCARα-LBD fusion protein, wild type (Xenopus laevis constitutive androstane receptor α, amino acids 145–423) Met316Phe”, the response (fold over empty vector pVP16-AD (=1)) in experiment [2] is 56. The response in experiment [3] stood at 5 rel pM/pVP16; in experiment [4], 0.8 rel pM/pVP16.

For the compound “full-length Xenopus laevis CARα, wild type, 35S-labelled Val315Ile”, in experiment [1], the other: fold induction (fold over DMSO only (=1)) turned out to be 10 and the response was 0.09 % of input.

For the compound “VP16-AD/xlCARα-LBD fusion protein, wild type (Xenopus laevis constitutive androstane receptor α, amino acids 145–423) His295Leu”, the response (fold over empty vector pVP16-AD (=1)) in experiment [2] is 47. The response in experiment [3] is 2.8 rel pM/pVP16; in experiment [4] it was 0.45 rel pM/pVP16.

For `CC(=O)[C@H]1CC[C@H]2[C@@H]3CC[C@@H]4CC(=O)CC[C@]4(C)[C@H]3CC[C@]12C` [5β-pregnane-3,20-dione], in experiment [5], the “fold induction of SRC-1 interaction” value is given as “suggests that xlCARα binds pregnanedione with higher affinity than hsCAR”.

On to “VP16-AD/xlCARα-LBD fusion protein, wild type (Xenopus laevis constitutive androstane receptor α, amino acids 145–423) Met272Val; Met316Phe”, for which the response (fold over empty vector pVP16-AD (=1)) in experiment [2] came to 59. The response in experiment [3] was determined as 5.5 rel pM/pVP16; in experiment [4] it was 0.77 rel pM/pVP16.

As for “VP16-AD/xlCARα-LBD fusion protein, wild type (Xenopus laevis constitutive androstane receptor α, amino acids 145–423) Thr305Val”, in experiment [2], the response (fold over empty vector pVP16-AD (=1)) turned out to be 110. For the same compound, the response in experiment [3] turned out to be 5.7 rel pM/pVP16; in experiment [4], 0.99 rel pM/pVP16.

In the case of “full-length Xenopus laevis CARα, wild type, 35S-labelled Phe297Tyr”, the response in experiment [1] is 0.11 % of input.

As for “full-length Xenopus laevis CARα, wild type, 35S-labelled His295Leu”, the response in experiment [1] is 0.11 % of input.

As to “VP16-AD/xlCARα-LBD fusion protein, wild type (Xenopus laevis constitutive androstane receptor α, amino acids 145–423) Tyr311Phe”, in experiment [2], the response (fold over empty vector pVP16-AD (=1)) was found to be 98. For the same compound, the response in experiment [3] came to 4.2 rel pM/pVP16; in experiment [4] it was 0.61 rel pM/pVP16.

For “full-length Xenopus laevis CARα, wild type, 35S-labelled Ser238Asn”, the response in experiment [1] was 0.11 % of input.

On to “full-length Xenopus laevis CARα, wild type, 35S-labelled Leu237Ile”, for which, in experiment [1], the other: fold induction (fold over DMSO only (=1)) stood at 28 and the response is 0.05 % of input.
